Results published in patent publication US20110250165A1.

Assays:
CF2ThCXCR4 (human) [1] = molecular target: CF2ThCXCR4 (human) (UniProt P61073); assay: FACS binding; CF2ThCXCR4 cells, MFI
CXCR4 (Jurkat) (human) [2] = molecular target: CXCR4 (Jurkat) (human) (UniProt P61073); assay: FACS binding; Jurkat cells, % positive
CF2ThCXCR4 (human) [3] = molecular target: CF2ThCXCR4 (human) (UniProt P61073); assay: FACS binding; CF2ThCXCR4 cells, % positive
CXCR4 (Jurkat) (human) [4] = molecular target: CXCR4 (Jurkat) (human) (UniProt P61073); assay: FACS binding; Jurkat cells, MFI
[5] = molecular target: human CXCR4 (wild type) (human) (UniProt P61073); assay: FACS on 293T cells expressing CXCR4 variants
2442 CXCR2/CXCR4 chimera = assay: FACS on 293T cells expressing CXCR4 variants
4442 CXCR2/CXCR4 chimera = assay: FACS on 293T cells expressing CXCR4 variants
ΔN31-CXCR4 (human) = ΔN31-CXCR4 (human) (UniProt P61073); assay: FACS on 293T cells expressing CXCR4 variants
[6] = molecular target: 2444b CXCR2/CXCR4 chimera (human) (UniProt P25025); assay: FACS on 293T cells expressing CXCR4 variants
ΔN25-CXCR4 (human) = ΔN25-CXCR4 (human) (UniProt P61073); assay: FACS on 293T cells expressing CXCR4 variants

Sequence of CXCR4 (Jurkat) (human) (P61073 whole entry): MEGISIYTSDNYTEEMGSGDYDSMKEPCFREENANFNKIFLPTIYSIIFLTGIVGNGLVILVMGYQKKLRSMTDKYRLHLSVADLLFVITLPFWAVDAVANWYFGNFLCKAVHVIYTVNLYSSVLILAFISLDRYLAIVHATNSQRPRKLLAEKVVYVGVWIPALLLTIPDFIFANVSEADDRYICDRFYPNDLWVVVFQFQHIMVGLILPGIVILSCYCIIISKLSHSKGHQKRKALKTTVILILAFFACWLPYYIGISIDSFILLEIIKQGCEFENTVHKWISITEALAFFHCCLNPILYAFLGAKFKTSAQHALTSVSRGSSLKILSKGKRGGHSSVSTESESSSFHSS
Sequence of CF2ThCXCR4 (human) (P61073 whole entry): as above
Sequence of human CXCR4 (wild type) (human) (P61073 whole entry): as above
Sequence of 2444b CXCR2/CXCR4 chimera (human) (P25025 other isoform, or with tags, fused parts or gaps mutant limits assumed): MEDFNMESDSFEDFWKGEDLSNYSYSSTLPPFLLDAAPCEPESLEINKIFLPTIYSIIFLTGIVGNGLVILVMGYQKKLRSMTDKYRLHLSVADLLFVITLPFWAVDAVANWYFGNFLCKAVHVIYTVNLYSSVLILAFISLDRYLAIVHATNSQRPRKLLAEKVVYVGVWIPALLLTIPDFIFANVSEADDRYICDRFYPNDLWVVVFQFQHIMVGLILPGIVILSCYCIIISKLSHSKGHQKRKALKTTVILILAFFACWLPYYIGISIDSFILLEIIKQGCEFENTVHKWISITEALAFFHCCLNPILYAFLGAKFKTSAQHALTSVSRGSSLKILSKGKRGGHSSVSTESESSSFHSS

EC50 (CF2ThCXCR4 (human) [1]) [mg/L]	EC50 (CXCR4 (Jurkat) (human) [2]) [mg/L]	EC50 (CF2ThCXCR4 (human) [3]) [mg/L]	EC50 (CXCR4 (Jurkat) (human) [4]) [mg/L]	binding (+%) [5] [%]	binding (+%) (2442 CXCR2/CXCR4 chimera) [%]	binding (+%) (4442 CXCR2/CXCR4 chimera) [%]	binding (+%) (ΔN31-CXCR4 (human)) [%]	binding (+%) [6] [%]	binding (+%) (ΔN25-CXCR4 (human)) [%]	Substance
0.7	0.06	0.005	16.9	–	–	–	–	–	–	12G5
–	–	–	–	100	85.8	103	55.4	70.1	69.2	murine monoclonal antibody 12G5
